Data on eleven molecules can be found in US20260234247A1 (published 2026).

In experiment [1] the target is T1, human LILRA2-his (human, UniProt Q8N149 24-449, limits assumed).
T1 construct: Analyte of the Biacore run; not shown: His tag
The experiment is described as follows: SPR (Biacore 8K), antibody captured via Fc, LILRA2-his as analyte, 1:1 model.

The target in experiment [2] is T2, human LILRB1-his (human, UniProt Q8NHL6 24-458, limits assumed).
T2 construct: Analyte of the Biacore run; not shown: His tag
T2 sequence (Q8NHL6 24-458 limits assumed): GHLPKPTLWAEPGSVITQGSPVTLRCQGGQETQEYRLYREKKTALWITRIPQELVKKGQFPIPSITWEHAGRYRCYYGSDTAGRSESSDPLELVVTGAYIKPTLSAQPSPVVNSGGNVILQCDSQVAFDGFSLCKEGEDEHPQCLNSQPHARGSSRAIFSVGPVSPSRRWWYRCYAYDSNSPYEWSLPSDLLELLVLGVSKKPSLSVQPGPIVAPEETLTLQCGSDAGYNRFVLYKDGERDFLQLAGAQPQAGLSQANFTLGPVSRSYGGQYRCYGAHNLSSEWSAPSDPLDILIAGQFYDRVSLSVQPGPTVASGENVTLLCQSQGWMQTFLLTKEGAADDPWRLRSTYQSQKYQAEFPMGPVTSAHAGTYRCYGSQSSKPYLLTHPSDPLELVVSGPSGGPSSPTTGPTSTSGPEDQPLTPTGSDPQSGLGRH
As to the kind of experiment: SPR (Biacore 8K), antibody captured via Fc, LILRB1-his as analyte, 1:1 model.

In experiment [3] the target is T3, human LILRB2 expressed on CHOK1 cells (human, UniProt Q8N423 22-597).
T3 construct: whole, on cells; also called CHOK1-hLILRB2; CHOK1-LILRB2
T3 sequence (Q8N423 22-597): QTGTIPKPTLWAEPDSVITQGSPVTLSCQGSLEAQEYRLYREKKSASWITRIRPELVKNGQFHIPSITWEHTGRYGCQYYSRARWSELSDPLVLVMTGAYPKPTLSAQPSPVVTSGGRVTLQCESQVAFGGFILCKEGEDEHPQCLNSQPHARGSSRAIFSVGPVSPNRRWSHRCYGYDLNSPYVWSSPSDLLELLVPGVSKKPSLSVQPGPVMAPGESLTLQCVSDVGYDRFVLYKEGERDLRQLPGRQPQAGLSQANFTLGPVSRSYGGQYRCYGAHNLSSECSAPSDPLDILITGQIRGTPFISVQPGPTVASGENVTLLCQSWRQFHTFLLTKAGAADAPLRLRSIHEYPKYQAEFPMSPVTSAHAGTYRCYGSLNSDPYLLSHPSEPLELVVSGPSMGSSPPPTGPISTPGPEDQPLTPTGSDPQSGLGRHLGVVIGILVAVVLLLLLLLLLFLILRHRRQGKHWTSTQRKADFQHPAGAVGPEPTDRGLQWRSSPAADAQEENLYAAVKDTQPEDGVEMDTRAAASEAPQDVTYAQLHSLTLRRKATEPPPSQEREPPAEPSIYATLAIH
The experiment is described as follows: cell based RBA on CHOK1-hLILRB2 cells, flow cytometry; competitor HLA-G.

In experiment [4] the target is T4, human LILRB1 expressed on CHOK1 cells (human, UniProt Q8NHL6 24-650).
T4 construct: whole, on cells; also called CHOK1-hLILRB1; CHOK1-LILRB1
T4 sequence (Q8NHL6 24-650): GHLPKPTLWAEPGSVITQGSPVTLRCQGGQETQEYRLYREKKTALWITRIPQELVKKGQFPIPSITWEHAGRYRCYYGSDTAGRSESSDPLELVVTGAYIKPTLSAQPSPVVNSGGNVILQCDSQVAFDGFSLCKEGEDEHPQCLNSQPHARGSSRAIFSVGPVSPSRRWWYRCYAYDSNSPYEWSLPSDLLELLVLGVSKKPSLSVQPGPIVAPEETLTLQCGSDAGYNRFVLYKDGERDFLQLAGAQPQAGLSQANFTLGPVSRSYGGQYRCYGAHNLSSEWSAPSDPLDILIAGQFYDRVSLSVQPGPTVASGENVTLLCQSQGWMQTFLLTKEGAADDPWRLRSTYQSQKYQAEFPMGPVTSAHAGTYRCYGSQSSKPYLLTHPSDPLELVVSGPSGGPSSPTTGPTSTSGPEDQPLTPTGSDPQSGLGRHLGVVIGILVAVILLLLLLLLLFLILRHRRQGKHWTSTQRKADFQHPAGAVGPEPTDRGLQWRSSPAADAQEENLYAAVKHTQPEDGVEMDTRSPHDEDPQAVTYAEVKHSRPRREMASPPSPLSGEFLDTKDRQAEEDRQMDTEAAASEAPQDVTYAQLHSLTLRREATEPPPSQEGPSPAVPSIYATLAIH
As to the kind of experiment: cell based RBA on CHOK1-hLILRB1 cells, flow cytometry; competitor HLA-G.

Experiment [5] has as its target T3, human LILRB2 expressed on CHOK1 cells. As to the kind of experiment: flow cytometry (FACS) binding to CHOK1-hLILRB2 cells. On the technique in general: In flow cytometry, cells or beads pass a laser one at a time.
The target in experiment [6] is T4, human LILRB1 expressed on CHOK1 cells. As to the kind of experiment: flow cytometry (FACS) binding to CHOK1-hLILRB1 cells.

T1 sequence (Q8N149 24-449 limits assumed): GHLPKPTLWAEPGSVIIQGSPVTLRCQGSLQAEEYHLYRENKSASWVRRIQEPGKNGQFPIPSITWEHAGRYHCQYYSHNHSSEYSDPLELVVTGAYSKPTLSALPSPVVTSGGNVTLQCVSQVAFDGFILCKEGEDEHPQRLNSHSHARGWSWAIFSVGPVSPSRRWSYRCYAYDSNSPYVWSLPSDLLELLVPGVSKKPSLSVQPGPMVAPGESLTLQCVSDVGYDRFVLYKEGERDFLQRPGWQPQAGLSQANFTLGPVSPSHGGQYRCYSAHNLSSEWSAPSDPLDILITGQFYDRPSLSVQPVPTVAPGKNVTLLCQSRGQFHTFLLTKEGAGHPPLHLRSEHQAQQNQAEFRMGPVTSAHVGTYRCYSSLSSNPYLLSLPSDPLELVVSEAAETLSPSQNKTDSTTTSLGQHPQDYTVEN

B1: LK-RB1-9.h3 (antibody, human IgG4, kappa, V domains shown)
VH: QVQLVQSGSELKKPGASVKVSCTASGYTFTTYGMSWVKQAPGQGLKWMGWINTYSGVPTYADDFKGRFVFSLDTSVSTAYLQISSLKAEDTAVYFCARRRRTYHGYLSFDYWGQGTTVTVSS
VL: DIQMTQSPSSLSASVGDRVTITCETSENIYGALNWYQQKPGKAPKLLIYGATNLAEGVPSRFSGSGSGTDYTFTISSLQPEDIATYYCQNVLNTPWTFGGGTKLEIKR
notes: Humanized form of LK-RB1-9
The term Kd denotes the free concentration of one partner at which half of the binding sites on the other are occupied at equilibrium, for simple one-to-one binding. Read a high Kd as weaker binding. In general, koff refers to a measure of how fast the partners let go of each other. Higher therefore signals fast dissociation. One may read the kon as the second-order rate constant of association. Higher therefore signals faster complex formation. In experiment [1], B1 had a dissociation constant (Kd) of 6.77 nM, a koff of 0.00126 s⁻¹ and a kon of 186000 M⁻¹ s⁻¹. Further, in experiment [2], the dissociation constant Kd came to 0.497 nM, the off-rate constant (koff) was 0.000115 s⁻¹ and the association rate constant (kon) worked out at 232000 M⁻¹ s⁻¹.

B2: LK-RBi-11 (bispecific antibody, human IgG4 S228P, kappa)
heavy: not shown
light: DIQMTQSPSTLSASVGDRVTITCHASQSVDFWLNWYQQKPGKAPKLLISKASNLHTGVPSRFSGSGSGTEFTLTISSLQPDDFATYYCQQGQSYPLTFGQGTKLEIKGGSGGGGSGDIQMTQSPSSVSASVGDRVTITCRASENIYSNLAWYQQKPGKAPKLLIYAATNLAEGVPSRFSGSGSGTDYTLTISSLQPEDFATYYCQQFWDNPLTFGQGTKLEIKRTVAAPSVFIFPPSDEQLKSGTASVVCLLNNFYPREAKVQWKVDNALQSGNSQESVTEQDSKDSTYSLSSTLTLSKADYEKHKVYACEVTHQGLSSPVTKSFNRGEC
In general, EC50 refers to the midpoint of the concentration-response curve. A low value points to greater potency. Consider B2, for which the concentration giving a half-maximal response (EC50) in experiment [3] is 2.49 µg/mL; in experiment [4], 4.37 µg/mL; in experiment [5] it was 2.22 nM; in experiment [6], 2.31 nM.

B3: hz73D1.v1 (antibody, human IgG4 S228P, kappa, V domains shown)
VH: QVQLVQSGAEVKKPGASVKVSCKASGYTFTDYYINWVRQAPGQGLEWMGNVNPNDGGTTYNQKFKGRVTMTTDTSTSTAYMELRSLRSDDTAVYYCARREIYFYGTIYYYAMDYWGQGTLVTVSS
VL: DIQLTQSPSFLSASVGDRVTITCRASESVDYYGNSFMYWYQQKPGKAPKLLIYFASNLESGVPSRFSGSGSGTEFTLTISSLQPEDFATYYCQQNNEDPWTFGGGTKVEIKR
As for B3, the 50% effective concentration (EC50) in experiment [3] was found to be 1.46 µg/mL; in experiment [4], 7.26 µg/mL; in experiment [5], 1.4 nM; in experiment [6], 5.37 nM.

B4: LK-RBi-10 (bispecific antibody, human IgG4 S228P, kappa)
heavy: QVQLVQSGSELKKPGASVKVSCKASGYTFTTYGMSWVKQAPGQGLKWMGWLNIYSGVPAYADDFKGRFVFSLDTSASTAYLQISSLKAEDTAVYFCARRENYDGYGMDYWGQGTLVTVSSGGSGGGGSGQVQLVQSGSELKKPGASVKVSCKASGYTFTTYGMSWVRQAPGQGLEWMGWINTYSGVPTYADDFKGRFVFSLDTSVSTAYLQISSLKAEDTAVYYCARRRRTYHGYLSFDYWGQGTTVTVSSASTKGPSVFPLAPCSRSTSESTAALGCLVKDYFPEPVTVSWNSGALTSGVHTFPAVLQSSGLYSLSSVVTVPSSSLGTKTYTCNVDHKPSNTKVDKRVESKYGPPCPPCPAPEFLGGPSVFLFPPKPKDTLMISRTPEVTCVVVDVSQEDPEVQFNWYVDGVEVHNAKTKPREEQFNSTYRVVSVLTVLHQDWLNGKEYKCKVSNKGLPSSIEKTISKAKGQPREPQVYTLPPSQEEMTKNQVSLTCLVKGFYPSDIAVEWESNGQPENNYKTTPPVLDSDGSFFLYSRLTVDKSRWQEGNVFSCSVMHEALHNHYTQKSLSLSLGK
light: EIVLTQSPATLSLSPGERATLSCRASQSISDYLHWYQQKPGQAPRLLIKYASQSISGIPSRFSGSGSGTDFTLTISSLEPEDVAVYYCQNGHSFPYTFGGGTKLEIKGGSGGGGSGDIQMTQSPSSLSASVGDRVTITCETSENIYGALNWYQQKPGKAPKLLIYGATNLAEGVPSRFSGSGSGTDFTFTISSLQPEDIATYYCQNVLNTPWTFGGGTKLEIKRTVAAPSVFIFPPSDEQLKSGTASVVCLLNNFYPREAKVQWKVDNALQSGNSQESVTEQDSKDSTYSLSSTLTLSKADYEKHKVYACEVTHQGLSSPVTKSFNRGEC
On to B4, for which the EC50 in experiment [3] turned out to be 0.5 µg/mL; in experiment [4], 0.91 µg/mL; in experiment [5], 1.06 nM; in experiment [6] it was 2.21 nM.

B5: LK-RBi-01 (bispecific antibody, human IgG4 S228P, kappa)
heavy: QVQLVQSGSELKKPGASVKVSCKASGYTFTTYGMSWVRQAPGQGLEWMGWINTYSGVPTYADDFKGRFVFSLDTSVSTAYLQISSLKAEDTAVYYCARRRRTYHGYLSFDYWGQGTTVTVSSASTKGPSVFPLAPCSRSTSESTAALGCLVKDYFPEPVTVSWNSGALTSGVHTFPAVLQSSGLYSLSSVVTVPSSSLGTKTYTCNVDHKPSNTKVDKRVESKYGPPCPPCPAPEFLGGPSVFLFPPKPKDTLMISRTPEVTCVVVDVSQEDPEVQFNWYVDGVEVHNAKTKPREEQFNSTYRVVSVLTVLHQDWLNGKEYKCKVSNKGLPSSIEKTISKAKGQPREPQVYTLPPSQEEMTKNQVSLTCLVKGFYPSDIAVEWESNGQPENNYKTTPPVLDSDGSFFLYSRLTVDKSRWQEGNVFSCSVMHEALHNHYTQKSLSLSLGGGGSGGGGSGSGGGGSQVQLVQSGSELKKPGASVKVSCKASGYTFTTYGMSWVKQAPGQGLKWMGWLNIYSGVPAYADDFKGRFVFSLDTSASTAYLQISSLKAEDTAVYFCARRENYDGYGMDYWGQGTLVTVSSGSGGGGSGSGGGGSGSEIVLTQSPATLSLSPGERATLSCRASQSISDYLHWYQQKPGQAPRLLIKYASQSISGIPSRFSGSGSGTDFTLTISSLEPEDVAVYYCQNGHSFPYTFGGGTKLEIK
light: DIQMTQSPSSLSASVGDRVTITCETSENIYGALNWYQQKPGKAPKLLIYGATNLAEGVPSRFSGSGSGTDFTFTISSLQPEDIATYYCQNVLNTPWTFGGGTKLEIKRTVAAPSVFIFPPSDEQLKSGTASVVCLLNNFYPREAKVQWKVDNALQSGNSQESVTEQDSKDSTYSLSSTLTLSKADYEKHKVYACEVTHQGLSSPVTKSFNRGEC
As for B5, the 50% effective concentration (EC50) in experiment [3] worked out at 0.38 µg/mL; in experiment [4] it was 1.4 µg/mL; in experiment [5], 0.8 nM; in experiment [6] it was 7.15 nM.

B6: LK-RBi-02 (bispecific antibody, human IgG4 S228P, kappa)
heavy: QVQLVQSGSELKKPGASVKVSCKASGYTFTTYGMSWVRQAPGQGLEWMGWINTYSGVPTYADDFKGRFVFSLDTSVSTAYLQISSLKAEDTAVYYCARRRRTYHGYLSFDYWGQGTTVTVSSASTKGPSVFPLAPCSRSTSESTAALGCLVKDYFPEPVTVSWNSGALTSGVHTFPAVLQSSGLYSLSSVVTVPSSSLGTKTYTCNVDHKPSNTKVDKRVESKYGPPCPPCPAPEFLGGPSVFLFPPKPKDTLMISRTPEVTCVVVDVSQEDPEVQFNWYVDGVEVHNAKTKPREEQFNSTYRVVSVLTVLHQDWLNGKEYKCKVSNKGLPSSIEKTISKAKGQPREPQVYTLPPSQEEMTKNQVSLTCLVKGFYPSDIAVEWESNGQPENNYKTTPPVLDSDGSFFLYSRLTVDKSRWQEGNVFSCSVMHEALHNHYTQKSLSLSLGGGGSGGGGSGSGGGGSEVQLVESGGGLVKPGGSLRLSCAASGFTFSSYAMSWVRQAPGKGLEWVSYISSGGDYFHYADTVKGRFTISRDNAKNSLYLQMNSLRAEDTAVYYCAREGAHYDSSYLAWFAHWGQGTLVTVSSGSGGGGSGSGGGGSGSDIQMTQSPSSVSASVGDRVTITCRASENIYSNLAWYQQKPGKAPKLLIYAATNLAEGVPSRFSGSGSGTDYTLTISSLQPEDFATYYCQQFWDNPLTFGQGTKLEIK
light: DIQMTQSPSSLSASVGDRVTITCETSENIYGALNWYQQKPGKAPKLLIYGATNLAEGVPSRFSGSGSGTDFTFTISSLQPEDIATYYCQNVLNTPWTFGGGTKLEIKRTVAAPSVFIFPPSDEQLKSGTASVVCLLNNFYPREAKVQWKVDNALQSGNSQESVTEQDSKDSTYSLSSTLTLSKADYEKHKVYACEVTHQGLSSPVTKSFNRGEC
Regarding B6, the EC50 in experiment [3] amounted to 0.19 µg/mL; in experiment [4], 2.12 µg/mL; in experiment [5], 1.25 nM; in experiment [6], 1.27 nM.

B7: LK-RBi-09 (bispecific antibody, human IgG4 S228P, kappa)
heavy: not shown
light: DIQMTQSPSSLSASVGDRVTITCETSENIYGALNWYQQKPGKAPKLLIYGATNLAEGVPSRFSGSGSGTDFTFTISSLQPEDIATYYCQNVLNTPWTFGGGTKLEIKGGSGGGGSGEIVLTQSPATLSLSPGERATLSCRASQSISDYLHWYQQKPGQAPRLLIKYASQSISGIPSRFSGSGSGTDFTLTISSLEPEDVAVYYCQNGHSFPYTFGGGTKLEIKRTVAAPSVFIFPPSDEQLKSGTASVVCLLNNFYPREAKVQWKVDNALQSGNSQESVTEQDSKDSTYSLSSTLTLSKADYEKHKVYACEVTHQGLSSPVTKSFNRGEC
B7: the EC50 in experiment [3] was 0.43 µg/mL; in experiment [4], 1.03 µg/mL; in experiment [5], 1.29 nM; in experiment [6], 1.17 nM.

B8: 15G8 (antibody, human IgG4 S228P, kappa, V domains shown)
VH: DVQLQGSGPGLVKPSETLSLTCSVTGYSITSGYYWNWIRQFPGKKLEWMGYISYDGSNNYNPSLKNRITISRDTSKNQFSLKLNSVTAADTATYYCAHGYSYYYAMDAWGQGTSVTVSS
VL: DIQMTQSPSSLSASVGDRVTITCRTSQDISNYLNWYQQKPGKAVKLLISYTSRLHSGVPSRFSGSGSGTDYTLTISSLQPEDFATYYCQQGNTLPTFGQGTKLEIKR
Turning to B8, the figures for the half-maximal effective concentration (EC50) in experiment [4] and in experiment [6] were 2.05 µg/mL and 1.17 nM, respectively. In addition, the binding result in experiment [5] is “no binding”.

B9: J19.h1 (antibody, human IgG4 S228P, kappa, V domains shown)
VH: QITLKESGPTLVKPTQTLTLTCTFSGFSLNTYAMGVSWIRQPPGKALEWLASIWWNGNKYNNPSLKSRLTVTKDTSKNQVVLTMTNMDPVDTATYYCAHSRIIRFTDYVMDAWGQGTLVTVSS
VL: DIQMTQSPSSLSTSVGDRVTITCRASEDIYNDLAWYQQKPGKAPKLLIYNANSLHTGVASRFSGSGSGTDFTFTISSLQPEDVATYFCQQYYDYPLTFGQGTKLEIKR
Regarding B9, the EC50 in experiment [3] is 0.46 µg/mL; in experiment [5] it was 0.27 nM. In addition, in experiment [6], the binding result is reported as “no binding”.

B10: LK-RBi-06 (bispecific antibody, human IgG4 S228P, kappa)
heavy: not shown
light: DIQMTQSPSTLSASVGDRVTITCHASQSVDFWLNWYQQKPGKAPKLLISKASNLHTGVPSRFSGSGSGTEFTLTISSLQPDDFATYYCQQGQSYPLTFGQGTKLEIKRTVAAPSVFIFPPSDEQLKSGTASVVCLLNNFYPREAKVQWKVDNALQSGNSQESVTEQDSKDSTYSLSSTLTLSKADYEKHKVYACEVTHQGLSSPVTKSFNRGEC
On to B10, for which the EC50 turned out to be 0.57 µg/mL in experiment [3], 1.31 µg/mL in experiment [4], 0.73 nM in experiment [5] and 1.47 nM in experiment [6].

B11: LK-RBi-07 (bispecific antibody, human IgG4 S228P, kappa)
heavy: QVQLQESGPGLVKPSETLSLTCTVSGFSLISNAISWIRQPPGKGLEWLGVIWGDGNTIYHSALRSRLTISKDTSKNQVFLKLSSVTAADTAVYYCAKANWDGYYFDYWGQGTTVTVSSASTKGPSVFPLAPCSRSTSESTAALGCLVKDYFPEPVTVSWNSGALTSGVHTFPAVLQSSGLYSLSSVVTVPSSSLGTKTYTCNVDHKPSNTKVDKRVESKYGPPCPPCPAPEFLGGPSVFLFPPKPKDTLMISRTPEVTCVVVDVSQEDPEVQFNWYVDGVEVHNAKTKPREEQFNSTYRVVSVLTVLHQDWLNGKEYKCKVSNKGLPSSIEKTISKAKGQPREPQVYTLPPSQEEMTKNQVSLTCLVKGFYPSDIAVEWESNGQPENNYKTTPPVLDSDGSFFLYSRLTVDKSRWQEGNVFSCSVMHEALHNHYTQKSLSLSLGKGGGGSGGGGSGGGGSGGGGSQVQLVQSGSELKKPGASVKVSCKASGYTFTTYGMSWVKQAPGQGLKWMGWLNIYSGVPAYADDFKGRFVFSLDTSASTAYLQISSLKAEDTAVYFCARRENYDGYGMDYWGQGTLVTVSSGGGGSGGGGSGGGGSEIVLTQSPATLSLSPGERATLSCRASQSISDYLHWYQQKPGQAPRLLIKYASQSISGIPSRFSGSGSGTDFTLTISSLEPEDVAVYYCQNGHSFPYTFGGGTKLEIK
light: DIQMTQSPSTLSASVGDRVTITCHASQSVDFWLNWYQQKPGKAPKLLISKASNLHTGVPSRFSGSGSGTEFTLTISSLQPDDFATYYCQQGQSYPLTFGQGTKLEIKRTVAAPSVFIFPPSDEQLKSGTASVVCLLNNFYPREAKVQWKVDNALQSGNSQESVTEQDSKDSTYSLSSTLTLSKADYEKHKVYACEVTHQGLSSPVTKSFNRGEC
Turning to B11, the half-maximal effective concentration (EC50) in experiment [3] worked out at 0.97 µg/mL; in experiment [4] it was 1.22 µg/mL; in experiment [5], 1.58 nM; in experiment [6], 2.51 nM.
